B1: engineered scaffold protein S068 (designed binder)
chain: GDTRPRFLWQLKFECHFFNGTERVRLLERCIYNQEESVRFDSDVGEYRAVTELGRPDAEYWNSQKDLLEQRRAAVDTYCRHNYGVGESFTVQRRVEPKVTVYPSKTQPLQHHNLLVCSVSGFYPGSIEVRWFRNGQEEKAGVVSTGLIQNGDWTFQTLVMLETVPRSGEVYTCQVEHPSVTSPLTVEWRASGGGGSGGGGSGGGGIKEEHVIIQAEFYLNPDQSGEFMFDFDGDEIFHVDMAKKETVWRLEEFGRFASFEAQGALANIAVDKANLEIMTKRSNYTPITNVPPEVTVLTNSPVELREPNVLICFIDKFTPPVVNVTWLRNGKPVTTGVSETVFLPREDHLFRKFHYLPFLPSTEDVYDCRVEHWGLDEPLLKHWEFDAPSGGSHHHHHHLE
B2: engineered scaffold protein S090 (designed binder)
chain: IKEEHSIRQNEMYLNPDQSGLFEFHLDGQPIFRVDMQKKRTKWQLEEFGRFASFEAQGALANIAVDKANLEIMTKRSNQSEAGSHSWQLIFVCEFHEGTESVRLSERCYYNQELSVSFNSDVGEYRAVTELGRPDAEYWNSQKDLLEQRRAAVDTYCRHNYGVGESFTVQRRGGSHHHHHHLE
B3: engineered scaffold protein S005 (designed binder)
chain: MIKEEHVIIQAEFYLNPDQSGEFMFDFDGDEIFHVDMAKKETVWRLEEFGRFASFEAQGALANIAVDKANLEIMTKRSNYTPMGDTRPRFLWQLKFECHFFNGTERVRLLERCIYNQEESVRFDSDVGEYRAVTELGRPDAEYWNSQKDLLEQRRAAVDTYCRHNYGVGESFTVQGGSHHHHHHLE

The binders below were run against TRPV1 disordered region polypeptide (UniProt Q8NER1) (assay: modified sandwich ELISA, fluorescence grade by the table's key).

fluorescent signal (fluorescentsignal)	Binder
50000 to 100000	B1
100000 to 250000	B2
100000 to 250000	B3

From patent US20250387450A1
